Assay results from patent publication US20170354706A1, “HYBRID PROTEINACEOUS MOLECULE CAPABLE OF INHIBITING AT LEAST ONE ANTIBIOTIC AND PHARMACEUTICAL COMPOSITION CONTAINING IT” (priority 2014, published 2017).
Read-outs that look alike come from different tables or passages of the source.

How the values were obtained:
[1] = test system: E. coli BL21(DE3)pLysS; test: MICs of beta-lactams on LB-agar for E. coli expression strains (Example 4); type: cell-based, Escherichia coli; settings: Table 10; for MIC of the antibiotic for the empty strain BL21(DE3)pLysS: no recombinant protein
Procedure: The pre-cultures are then inoculated at 1/40th in 5 ml of LB+50 μg/ml Kanamycin medium and when the OD600 reaches a value of 0.6 (about 2 hours), the production of protein is induced by the addition of final IPTG 1 mM and continues for 1.5 hours at 37° C. with stirring at 200 rpm.
The dishes were incubated at 37° C. overnight and the results were recorded the following day. The MICs correspond to the lowest concentration of antibiotic at which the highest inoculum doesn't grow.

[2] = cited from earlier work
[3] = test system: E. coli BL21(DE3)pLysS; test: MICs of beta-lactams and macrolide on LB-agar for E. coli expression strains (Example 6); type: cell-based, Escherichia coli; settings: Table 14
Procedure: The pre-cultures are then inoculated at 1/40th in 5 ml of LB+50 μg/ml Kanamycin medium and when the OD600 nm reaches a value of 0.6 (about 2 hours), the production of protein is induced by the addition of 1 mM final IPTG and continued for 1.5 hours at 37° C. with stirring at 200 rpm.
The dishes are incubated at 37° C. over night and the results are recorded the next day. The MICs correspond to the lowest concentration of antibiotic at which the highest inoculum no longer grows.

[4] = pH-STAT beta-lactam hydrolysis assay, substrate amoxicillin; type: biochemical; settings: 37° C., pH=7.0
Procedure: (§1) The purified proteins were tested on different beta-lactams (amoxicillin (Apollo Scientific), Augmentin® (GlaxoSmithKline) and Ceftriaxone (Rocéphine®, Roche)). The assays are carried out at pH-STAT (Titrino 2.5, Metrohm) in a reaction volume of 25 ml at 37° C. and pH=7.0. The substrates are prepared at 4 g/l in a 0.3 mM Tris buffer, 150 mM NaCl. The enzyme hydrolysis of the beta-lactam nuclei releases an acid and induces a drop in the pH. The principle of the assay is to compensate for the acidification by the addition of 0.1 N sodium hydroxide so as to remain at pH=7.0. In these conditions, one unit corresponds to 1 μmole of sodium hydroxide added per minute, that is, one μmole of beta-lactam hydrolysed per minute. Table 3 below lists the specific activities measured for each protein on the three substrates (mean of 6 replicates).

[5] = pH-STAT beta-lactam hydrolysis assay, substrate Augmentin; type: biochemical; settings: 37° C., pH=7.0
Procedure: as §1

[6] = pH-STAT beta-lactam hydrolysis assay, substrate ceftriaxone; type: biochemical; settings: 37° C., pH=7.0
Procedure: as §1
The purified proteins were tested on different antibiotics: Ceftriaxone (RocéphineED, Roche) for the beta-lactams and kanamycin for the Aminoglycosides. The assays on ceftriaxone were carried out at pH-STAT (Titrino 2.5, Metrohm) in a reaction volume of 25 ml at 37° C. and pH=7.0. The substrates are prepared at 4 g/l in a 0.3 mM Tris buffer, 150 mM NaCl. The enzyme hydrolysis of the beta-lactam nuclei releases an acid and results in a drop in the pH. The principle of the assay is to compensate this acidification by the addition of 0.1 N sodium hydroxide so as to remain at pH=7.0. In these conditions, one unit corresponds to 1 μmol of sodium hydroxide added per minute, that is one μmol of beta-lactam hydrolyzed per minute.

[7] = Table 3, proteins produced in Pichia pastoris, substrate 4 g/l, 1 U = 1 μmole beta-lactam hydrolysed per minute, mean of 6 replicates
[8] = Table 5 (Example 2), proteins produced in Pichia pastoris
[9] = Table 7 (Example 3), proteins produced in Pichia pastoris
[10] = Table 9, proteins produced in Escherichia coli BL21(DE3) pLysS (periplasm, non-glycosylated)
[11] = Table 3, proteins produced in Pichia pastoris, substrate 4 g/l, mean of 6 replicates
[12] = Table 9, proteins produced in Escherichia coli BL21(DE3) pLysS
[13] = BL21(DE3)pLysS + protein, IPTG induced, LB-agar, 37° C. over night
[14] = BL21(DE3)pLysS + protein, IPTG induced, LB-agar, 37° C. overnight

| Molecule | MIC of the antibiotic for the empty strain BL21(DE3)pLysS [1] [μg/ml] | Specific activity, substrate Amoxicillin [4, 7] [U/mg] | Specific activity, substrate Amoxicillin [4, 8] [U/mg] | Specific activity, substrate Amoxicillin [4, 9] [U/mg] | Specific activity, substrate Amoxicillin [4, 10] [U/mg] | Specific activity, substrate Augmentin [5, 11] [U/mg] | Specific activity, substrate Augmentin [5, 8] [U/mg] | Specific activity, substrate Augmentin [5, 9] [U/mg] | Specific activity, substrate Augmentin [5, 12] [U/mg] | Specific activity, substrate Ceftriaxone [6, 11] [U/mg] | Specific activity, substrate Ceftriaxone [6, 8] [U/mg] | Specific activity, substrate Ceftriaxone [6, 9] [U/mg] | Specific activity, substrate Ceftriaxone [6, 12] [U/mg] | MIC of Amoxicillin for E. coli strain expressing the protein [3, 13] [µg/mL] | MIC of Augmentin for E. coli strain expressing the protein [3, 13] [µg/mL] | further results |
| --- | --- | --- | --- | --- | --- | --- | --- | --- | --- | --- | --- | --- | --- | --- | --- | --- |
| CC1(C)S[C@@H]2[C@H](NC(=O)[C@H](N)c3ccc(O)cc3)C(=O)N2[C@H]1C(=O)O [Amoxicillin, amoxicillin, reference compound] | <0.5 | – | – | – | – | – | – | – | – | – | – | – | – | – | – | Patients with acute diarrhoea induced by antibiotics ([2]; patients receiving antibiotic therapy): 5-10%; MIC of the antibiotic for the empty strain BL21(DE3)pLysS ([3]; empty strain, no recombinant protein): <2 μg/ml |
| CO/N=C(\C(=O)N[C@@H]1C(=O)N2C(C(=O)O)=C(CSc3nc(=O)c(O)nn3C)CS[C@H]12)c1csc(N)n1 [Rocephine, Ceftriaxone, reference compound] | <0.5 | – | – | – | – | – | – | – | – | – | – | – | – | – | – | – |
| CC[C@H]1OC(=O)[C@H](C)[C@@H](O[C@H]2C[C@@](C)(OC)[C@@H](O)[C@H](C)O2)[C@H](C)[C@@H](O[C@@H]2O[C@H](C)C[C@H](N(C)C)[C@H]2O)[C@](C)(O)C[C@@H](C)CN(C)[C@H](C)[C@@H](O)[C@]1(C)O [azithromycin] | – | – | – | – | – | – | – | – | – | – | – | – | – | – | – | Patients with acute diarrhoea induced by antibiotics ([2]; human, in vivo): 2-5% |
| TEM36-GGGGGG-CTXM16: SEQ ID 8; fusion TEM36 and CTXM16 with flexible 6 glycine linker, 532 aa (protein, TEM36-GGGGGG-CTXM16, fusion TEM36 and CTXM16 with flexible 6 glycine linker, 532 aa) HPETLVKVKDAEDQLGARVGYIELDLNSGKILESFRPEERFPMVSTFKVLLCGAVLSRVDAGQEQLGRRIHYSQNDLVEYSPVTEKHLTDGMTVRELCSAAITMSDNTAANLLLTTIGGPKELTAFLHNMGDHVTRLDRWEPELNEAIPNDERDTTMPAAMATTLRKLLTGELLTLASRQQLIDWMEADKVAGPLLRSALPAGWFIADKSGAGERGSRGIIAALGPDGKPSRIVVIYTTGSQATMDERDRQIAEIGASLIKHWGGGGGGQTSAVQQKLAALEKSSGGRLGVALIDTADNTQVLYRGDERFPMCSTSKVMAAAAVLKQSETQKQLLNQPVEIKPADLVNYNPIAEKHVNGTMTLAELSAAALQYSDNTAMNKLIAQLGGPGGVTAFARAIGDETFRLDRTEPTLNTAIPGDPRDTTTPRAMAQTLRQLTLGHALGETQRAQLVTWLKGNTTGAASIRAGLPTSWTAGDKTGSGGYGTTNDIAVIWPQGRAPLVLVTYFTQPQQNAESRRDVLASAARIIAEGL | – | 695 ± 98 | 890 ± 83 | 890 ± 176 | 633 ± 99 | 42 ± 33 | 42 ± 14 | 34 ± 6 | 24 ± 5 | 114 ± 44 | 123 ± 35 | 141 ± 55 | 138 ± 32 | – | – | – |
| EreB: SEQ ID 5; erythromycin esterase, P05789.1, 419 aa (protein, listed as Escherichia coli) MRFEEWVKDKHIPFKLNHPDDNYDDFKPLRKIIGDTRVVALGENSHFIKEFFLLRHTLLRFFIEDLGFTTFAFEFGFAEGQIINNWIHGQGTDDEIGRFLKHFYYPEELKTTFLWLREYNKAAKEKITFLGIDIPRNGGSYLPNMEIVHDFFRTADKEALHIIDDAFNIAKKIDYFSTSQAALNLHELTDSEKCRLTSQLARVKVRLEAMAPIHIEKYGIDKYETILHYANGMIYLDYNIQAMSGFISGGGMQGDMGAKDKYMADSVLWHLKNPQSEQKVIVVAHNAHIQKTPILYDGFLSCLPMGQRLKNAIGDDYMSLGITSYSGHTAALYPEVDTKYGFRVDNFQLQEPNEGSVEKAISGCGVTNSFVFFRNIPEDLQSIPNMIRFDSIYMKAELEKAFDGIFQIEKSSVSEVVYE | – | – | – | – | – | – | – | – | – | – | – | – | – | <2 | <2 | MIC of Erythromycin for E. coli strain expressing the protein [3, 13]: >1024 µg/mL |
| TEM-36: SEQ ID 1; clavulanic acid-resistant class A β-lactamase (IR-TEM, aminopenicillinase), 263 aa; constituent enzyme (protein, listed as Escherichia coli) HPETLVKVKDAEDQLGARVGYIELDLNSGKILESFRPEERFPMVSTFKVLLCGAVLSRVDAGQEQLGRRIHYSQNDLVEYSPVTEKHLTDGMTVRELCSAAITMSDNTAANLLLTTIGGPKELTAFLHNMGDHVTRLDRWEPELNEAIPNDERDTTMPAAMATTLRKLLTGELLTLASRQQLIDWMEADKVAGPLLRSALPAGWFIADKSGAGERGSRGIIAALGPDGKPSRIVVIYTTGSQATMDERDRQIAEIGASLIKHW | – | 816 ± 90 | 816 ± 90 | 816 ± 90 | 3593 ± 87 | 97 ± 74 | 97 ± 74 | 97 ± 74 | 385 ± 31 | 0 | 0 | 0 | 1 ± 1 | >2048 | 512 | MIC of Amoxicillin for E. coli strain expressing the protein [1, 14]: >1024 µg/mL; MIC of Augmentin for E. coli strain expressing the protein [1, 14]: 512 µg/mL; MIC of Rocephine for E. coli strain expressing the protein [1, 14]: <0.5 µg/mL |
